Test results reported in patent publication US11325966.

How the values were obtained:
Assay in all cases: cell-based or functional assay
[1] = target: HIV-1 Env of pseudovirus SC422661.8 (HIV-1)
[2] = target: HIV-1 Env of pseudovirus 3817.v2.c59 (HIV-1)
[3] = target: HIV-1 Env of pseudovirus SC05_8C11_2344 (HIV-1)
[4] = target: HIV-1 Env of pseudovirus Du172.17 (HIV-1)
[5] = target: HIV-1 Env of pseudovirus CNE58 (HIV-1)
[6] = target: HIV-1 Env of pseudovirus 3301.v1.c24 (HIV-1)
[7] = target: HIV-1 Env of pseudovirus Ce2010_F5 (HIV-1)

B1: 10-1074 (antibody, V domains shown)
VH: QVQLQESGPGLVKPSETLSVTCSVSGDSMNNYYWTWIRQSPGKGLEWIGYISDRESATYNPSLNSRVVISRDTSKNQLSLKLNSVTPADTAVYYCATARRGQRIYGVVSFGEFFYYYSMDVWGKGTTVTVSS
VL: SYVRPLSVALGETARISCGRQALGSRAVQWYQHRPGQAPILLIYNNQDRPSGIPERFSGTPDINFGTRATLTISGVEAGDEADYYCHMWDSRSGFSWSFGGATRLTVL
IC50 in TZM-bl assay [1]: 0.058 µg/mL | IC80 in TZM-bl assay [1]: 0.368 µg/mL | IC50 in TZM-bl assay [2]: 0.706 µg/mL | IC80 in TZM-bl assay [2]: 4.49 µg/mL | IC50 in TZM-bl assay [3]: 0.017 µg/mL | IC80 in TZM-bl assay [3]: 0.048 µg/mL | IC50 in TZM-bl assay [4]: 0.049 µg/mL | IC80 in TZM-bl assay [4]: 0.194 µg/mL | IC50 in TZM-bl assay [5]: 0.165 µg/mL | IC80 in TZM-bl assay [5]: 0.476 µg/mL | IC50 in TZM-bl assay [6]: 0.018 µg/mL | IC80 in TZM-bl assay [6]: 0.049 µg/mL | IC50 in TZM-bl assay [7]: > 10 µg/mL | IC80 in TZM-bl assay [7]: > 10 µg/mL
